Results on 167 variants are retold here after the RNAGym collection of RNA variant scans (doi:10.7554/elife.90254).

To fix the notation:
B1: OR4K15 (parent)
chain: GUUAACGGUCAUAGGCCAUGGAAACUAGGAGCACCAUUUCGCUGCCAGUGAAGAAAUGAACAAAGAAAAUCUGGGCCAGGCAGGCAUCAAAAGAAAUAGUCUUGCGCUCAACCAGAAAGUCUGUAAUCAUUUUAAGGGUA

The data set covers variants of B1. Nature of the data set: self-cleavage, relative activity (ratio to wild type); higher = more cleavage; in vitro, sequencing; the parent is a self-cleaving ribozyme.
G73A U108C: the self-cleavage is 0.01.

U72A A91G: the self-cleavage worked out at 0.19. Take U72A A91U: the self-cleavage worked out at 0.24. As for A69G C85U, the self-cleavage is 0.65. In the case of A69U A90G it was 1.31; in that of G75A A78U, 0.09; in that of U70G A95G, 1.21. On to A68G U120C, for which the self-cleavage amounted to 0.65. Regarding A68G U120G, the self-cleavage came to 1.02.

For the variant G73A A117G, the self-cleavage was found to be 0.15.

For the variant U70A A89U, the self-cleavage turned out to be 1.74. For A69U A78C, the self-cleavage came to 0.31.

For A69U A126C, the self-cleavage is 1.66. As for U72A C85U, the self-cleavage amounted to 0.36. For the variant C71U U124C, the self-cleavage came to 0.06. Turning to G74C A96G, the self-cleavage was 0.29. In the case of A68U U108C it was 0.02; in that of A68U A134G, 1.78. Consider U70C G104A, for which the self-cleavage was determined as 0.03. Consider U72G U97G, for which the self-cleavage worked out at 0.3. Under G74A A140U stands 0.22; under G74A C76U, 0.11. As for A69U A111G, the self-cleavage came to 0.04. On to A69U A134G, for which the self-cleavage was 1.82. For U72C G80A, the self-cleavage amounted to 0.38. Consider U72C U108C, for which the self-cleavage turned out to be 0.01. In the case of U72C U108A, the self-cleavage amounted to 0.07. Consider U72C G83A, for which the self-cleavage was determined as 0.08. Under A69G G80A stands 0.12. In the case of A69G U72G it was 0.38; in that of U72A A94U, 0.37; in that of G74U G119A, 0.19. Under A68U A90G stands 1.18. A69G U139A: the self-cleavage worked out at 1.69. Under G73U A110G stands 0.03. In the case of U70C A110G, the self-cleavage worked out at 0.06. Under A68G U100A stands 0.24; under A68G U100C, 1.42. With U72G A78G, the self-cleavage came to 0.39. For U70G U122A, the self-cleavage came to 1.34. For A69G A118G, the self-cleavage worked out at 0.98. For the variant U70C A91U, the self-cleavage amounted to 1.07. In the case of U70C U124A, the self-cleavage was found to be 0.17. U70C U124C: the self-cleavage is 0.27. In the case of C71U A126G it was 0.32; in that of G73A A82G, 0.22. On to G74A U122A, for which the self-cleavage was determined as 0.18. Under U72C U132C stands 0.3; under U70A U132C, 0.6; under C71U U132C, 0.25.

Consider A68U, for which the self-cleavage was found to be 1.83. For the variant U70C A94U, the self-cleavage was found to be 0.2.

Turning to C71U U72A, the self-cleavage worked out at 0.19. Consider A69G U124A, for which the self-cleavage amounted to 0.53.

For the variant A69U U87G, the self-cleavage worked out at 0.74. Regarding A68U A69G, the self-cleavage came out at 0.98. In the case of U72A A111U, the self-cleavage was 0.01. For the variant U70C A98U, the self-cleavage is 0.72. Regarding G74A A110G, the self-cleavage came out at 0.02. For U72A A140G, the self-cleavage was 0.32.

U72C A95U: the self-cleavage was 0.35.

U72C A95G: the self-cleavage worked out at 0.35.

On to G74A A94C, for which the self-cleavage is 0.06.

As for G74A A94U, the self-cleavage turned out to be 0.19.

Take G74U A118G: the self-cleavage is 0.1. Turning to A69G U120C, the self-cleavage is 0.98. In the case of A69G U120A it was 1.44.

As to A69G G106A, the self-cleavage was found to be 0.02. In the case of U72A C101A, the self-cleavage was 0.04. With A69G A78G, the self-cleavage was 0.27. A69G A78C: the self-cleavage amounted to 0.36. With U70A A118G, the self-cleavage amounted to 0.37. As to U70G A94G, the self-cleavage is 1.61. With U70C U100C, the self-cleavage came to 2.

Regarding U70C U100A, the self-cleavage worked out at 0.18.

With A69U U108C, the self-cleavage stood at 0.02. In the case of G73U A95G it was 0.17; in that of U72A U108C, 0.01. Under U72A U108A stands 0.04.

Consider A69G U100C, for which the self-cleavage was 2.43. In the case of U72A A126U, the self-cleavage was 0.37. U72A A126G: the self-cleavage stood at 0.16. In the case of U72A U100G, the self-cleavage amounted to 0.19. In the case of U72A U100C, the self-cleavage was 0.4.

A68U U120C: the self-cleavage was 1.1.

A68U U120A: the self-cleavage came out at 1.48.

Turning to U72A A95G, the self-cleavage was 0.36.

For the variant A68G U131C, the self-cleavage is 0.99. In the case of A69U G137U, the self-cleavage amounted to 2.12.

As to A69U G137A, the self-cleavage worked out at 2.13.

With G73A A116U, the self-cleavage amounted to 0.03. In the case of A68U C113A it was 0.01. On to U70A U122C, for which the self-cleavage was 1.14. With U72A A82U, the self-cleavage is 0.15. For the variant G74U U87A, the self-cleavage was 0.15. Take U70C U72C: the self-cleavage is 0.31. In the case of U70C U72A it was 0.21. For A69G A94U, the self-cleavage worked out at 1.45.

Take A69G A94G: the self-cleavage came to 1.36. U70C A118G: the self-cleavage came out at 0.35. Take U70A A82U: the self-cleavage came to 0.24. U72A A110C: the self-cleavage worked out at 0.06.

As to C71U U130C, the self-cleavage is 0.13. For the variant A68U U72A, the self-cleavage stood at 0.34. Consider A69U G136A, for which the self-cleavage turned out to be 2.69. With U72A U127A, the self-cleavage was found to be 0.64. In the case of G73A A90G, the self-cleavage worked out at 0.03. Regarding G74A U103C, the self-cleavage came out at 0.08. Consider U72A U87C, for which the self-cleavage came to 0.19. In the case of U72A U87A, the self-cleavage was determined as 0.37. In the case of A68G U103G it was 0.04; in that of U72C A114G, 2.31. For the variant C71A U132C, the self-cleavage came to 0.58.

In the case of G74C A110U, the self-cleavage was found to be 0.14. In the case of U70C G83A, the self-cleavage was determined as 1.57. Turning to U72A U124G, the self-cleavage is 0.12. In the case of U72A U124A, the self-cleavage was found to be 0.1. In the case of U72A U133G, the self-cleavage stood at 0.36. Under U72C U127A stands 0.19; under U70C U131C, 0.65; under A69G U127A, 1.8. Take U70C A95G: the self-cleavage worked out at 1.84.

As to U70A A117G, the self-cleavage was found to be 0.03.

Consider A69C A96U, for which the self-cleavage turned out to be 0.68. In the case of U72C G138A it was 0.49. Take G74U G83A: the self-cleavage came to 0.16. Regarding A69G A89C, the self-cleavage was 1.65. For the variant A69G A89G, the self-cleavage is 0.86. Take G73A G136U: the self-cleavage was 0.22. Regarding G74U C113A, the self-cleavage is 0.04. In the case of U70A U127C, the self-cleavage was determined as 0.34.

As for U72A A92U, the self-cleavage was 0.13. With A69U A96G, the self-cleavage worked out at 2.35.

For the variant U72A U102C, the self-cleavage stood at 0.58. For the variant G74U A116U, the self-cleavage was found to be 0.03. For the variant A69G A135U, the self-cleavage turned out to be 1.45.

With A69G A135G, the self-cleavage was 0.07.

Take A69G U108C: the self-cleavage came to 0.02. With A68U C88U, the self-cleavage was 2.47. In the case of U72C A91G it was 0.05. As for G73U U108C, the self-cleavage was 0.02. Take U70C A126U: the self-cleavage came to 0.71. For U70C A126G, the self-cleavage stood at 0.96. Regarding G75A, the self-cleavage worked out at 0.11.

As to A68U U103C, the self-cleavage was determined as 1.42.

As for G73A A94G, the self-cleavage was 0.19.

On to U70G A118G, for which the self-cleavage worked out at 0.55. Regarding U72C G136A, the self-cleavage was found to be 0.7. Under A69G C101U stands 0.26; under U70C U133C, 0.98.

G74A A125G: the self-cleavage amounted to 0.05. For U70A A110U, the self-cleavage is 0.18. On to U70A A110G, for which the self-cleavage stood at 0.1. Take C71U A95G: the self-cleavage turned out to be 0.97. For C71U A95U, the self-cleavage is 0.5.

As for U72G A96G, the self-cleavage came out at 0.07. As to G73U A118G, the self-cleavage came out at 0.02.

Consider U72A A114G, for which the self-cleavage was 0.11. Consider C71U A92G, for which the self-cleavage was determined as 0.52. On to A69G A114C, for which the self-cleavage turned out to be 0.01. For A69G A114U, the self-cleavage was 0.1. For U72C A111G, the self-cleavage was 0.02. For the variant U72A, the self-cleavage was 0.18. In the case of U72C it was 0.12; in that of U72G, 0.12; in that of A69G A92U, 1.3.

With A69G A92G, the self-cleavage turned out to be 0.72.
